Test results taken from PMC8095197 (bioRxiv, 2021).

Target: SARS-CoV-2 spike (SARS-CoV-2, reference (Wuhan-Hu-1) …, UniProt P0DTC2)
Assay: ELISA

B1: DH1047 IgG (antibody, V domains shown)
VH: QVQLVQSGAEVKKPGASVQVSCQASANTFTNHYIHWVRQAPGQGLEWMGIIYPTGGNTIYAQGFQGRVTMTRDTSLNTIYLELSSLRSEDTAVYYCARDVRVDDSWSGYDLLSGGTYFDYWGQGTLVTVSS
VL: not shown
B1: binds.
